Assay results taken from publication PMC5945891, “Proteomics of Stored Red Blood Cell Membrane and Storage-Induced Microvesicles Reveals the Association of Flotillin-2 With Band 3 Complexes” (Frontiers in Physiology, 2018).

B1: band 3 (natural protein, human (endogenous in RBCs), UniProt P02730 1-911, looked up)
chain: MEELQDDYEDMMEENLEQEEYEDPDIPESQMEEPAAHDTEATATDYHTTSHPGTHKVYVELQELVMDEKNQELRWMEAARWVQLEENLGENGAWGRPHLSHLTFWSLLELRRVFTKGTVLLDLQETSLAGVANQLLDRFIFEDQIRPQDREELLRALLLKHSHAGELEALGGVKPAVLTRSGDPSQPLLPQHSSLETQLFCEQGDGGTEGHSPSGILEKIPPDSEATLVLVGRADFLEQPVLGFVRLQEAAELEAVELPVPIRFLFVLLGPEAPHIDYTQLGRAAATLMSERVFRIDAYMAQSRGELLHSLEGFLDCSLVLPPTDAPSEQALLSLVPVQRELLRRRYQSSPAKPDSSFYKGLDLNGGPDDPLQQTGQLFGGLVRDIRRRYPYYLSDITDAFSPQVLAAVIFIYFAALSPAITFGGLLGEKTRNQMGVSELLISTAVQGILFALLGAQPLLVVGFSGPLLVFEEAFFSFCETNGLEYIVGRVWIGFWLILLVVLVVAFEGSFLVRFISRYTQEIFSFLISLIFIYETFSKLIKIFQDHPLQKTYNYNVLMVPKPQGPLPNTALLSLVLMAGTFFFAMMLRKFKNSSYFPGKLRRVIGDFGVPISILIMVLVDFFIQDTYTQKLSVPDGFKVSNSSARGWVIHPLGLRSEFPIWMMFASALPALLVFILIFLESQITTLIVSKPERKMVKGSGFHLDLLLVVGMGGVAALFGMPWLSATTVRSVTHANALTVMGKASTPGAAAQIQEVKEQRISGLLVAVLVGLSILMEPILSRIPLAVLFGIFLYMGVTSLSGIQLFDRILLLFKPPKYHPDVPYVKRVKTWRMHLFTGIQIICLAVLWVVKSTPASLALPFVLILTVPLRRVLLPLIFRNVELQCLDADDAKATFDEEEGRDEYDEVAMPV
notes: band 3 anion transporter of the human red blood cell membrane; bait captured with the anti-band 3 antibodies BRIC 6 and BRIC 170; Captured as native 'band 3 complexes' with no distinction between ankyrin, junctional and free complexes; also called band 3 complexes; source: endogenous, membranes of stored human RBCs and storage-induced microvesicles, 1% deoxycholate extract
B2: Flotillin-2 (natural protein, human (endogenous in RBCs), UniProt Q14254 1-428, looked up)
chain: MGNCHTVGPNEALVVSGGCCGSDYKQYVFGGWAWAWWCISDTQRISLEIMTLQPRCEDVETAEGVALTVTGVAQVKIMTEKELLAVACEQFLGKNVQDIKNVVLQTLEGHLRSILGTLTVEQIYQDRDQFAKLVREVAAPDVGRMGIEILSFTIKDVYDKVDYLSSLGKTQTAVVQRDADIGVAEAERDAGIREAECKKEMLDVKFMADTKIADSKRAFELQKSAFSEEVNIKTAEAQLAYELQGAREQQKIRQEEIEIEVVQRKKQIAVEAQEILRTDKELIATVRRPAEAEAHRIQQIAEGEKVKQVLLAQAEAEKIRKIGEAEAAVIEAMGKAEAERMKLKAEAYQKYGDAAKMALVLEALPQIAAKIAAPLTKVDEIVVLSGDNSKVTSEVNRLLAELPASVHALTGVDLSKIPLIKKATGVQV
notes: flotillin-2, human, SwissProt Q14254; source: endogenous, membranes of stored human RBCs and storage-induced microvesicles, 1% deoxycholate extract

Tests used:
[1] = target: the molecule itself; assay: SDS-PAGE; band around 220 kDa on Coomassie-stained SDS-PAGE of total membrane proteins and co-IP eluates from RBCs and MVs
band 3 [2] = target: B1; assay: co-IP; band 3 complexes captured from 1% deoxycholate extracts of storage-induced microvesicles (bags D-F; compared with RBCs of the same bags) on beads coated with BRIC 6 and BRIC 170; eluates analysed by western blot for flotillin-2, densitometry; settings: partners not purified
band 3 [3] = target: B1; assay: co-IP; band 3 complexes captured from 1% deoxycholate extracts of RBC membranes (short- and long-stored ECs, bags A-C) on beads coated with BRIC 6 and BRIC 170; eluates analysed by western blot (ADSL, α-adducin, flotillin-2), densitometry relative to Ponceau loading; settings: partners not purified

Binder: B1
- stoichiometry N [1]: 2

Binder: B2
- fold decrease of the amount in band 3 complexes, MVs against RBCs (band 3 [2]): 1.3 fold
- fold change of the amount in band 3 complexes, long-stored against short-stored ECs (band 3 [3]): 1.6 fold
